From the supplement of paper PMC7877785
± gives the uncertainty stated by the source.

Assay: self-splicing fitness, log relative to wild type (ln ratio); higher = more splicing; Tetrahymena group I intron in knt gene, E. coli kanamycin selection, DiMSum; sequences stand for … in CUCUCU…GGAGGGAAAAGUUAUCAGGCAUGCACCUGGUAGCUAGUCUUUAAACCAAUAGAUUGCAUCGGUUUAAAAGGCAAGACCGUCAAAUUGCGGGAAAGGGGUCAACAGCCGUUCAGUACCAAGUCUCAGGGGAAACUUUGAGAUGGCCUUGCAAAGGGUAUGGUAAUAAGCUGACGGACAUGGUCCUAACCACGCAGCCAAGUCCUAAGUCAACAGAUCUUCUGUUGAUAUGGAUGCAGUUCACAGACUAAAUGUCGGUCGGGGAAGAUGUAUUCUUCUCAUAAGAUAUAGUCGGACCUCUCCUUAAUGGGAGCUAGCGGAUGAAGUGAUGCAACACUGGAGCCGCUGGGAACUAAUUUGUAUGCGAAAGUAUAUUGAUUAGUUUUGGAGUACUCGUGGUCG
How it was run: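 A randomised library covering all eight P1ex-region intron nucleotides was built with the intron in the knt kanamycin-resistance gene on pET-22b(+) and held in E. coli BL21(DE3). Cells were grown overnight at 37°C or 30°C on LB agar, with or without 25 μg/mL kanamycin, plus 100 μg/mL carbenicillin, 50 μM IPTG and 0.2% rhamnose, and pooled colonies were amplicon-sequenced on an Illumina HiSeq 2500. DiMSum fitness is the error-weighted combination of wild-type-normalised replicate fold changes, kanamycin versus none.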

| Sequence | self-splicing fitness (ln) (30 °C) | self-splicing fitness (ln) (37 °C) |
| --- | --- | --- |
| GCUCAGCAAUAUUACGAAGG | -0.909 ± 0.073 | -0.29 ± 0.1 |
| GCUCAGCAAUAUUACGAAGU | -1.63 ± 0.16 | -0.416 ± 0.15 |
| GCUCAGCAAUAUUACGAAUA | -1.02 ± 0.066 | -0.439 ± 0.072 |
| GCUCAGCAAUAUUACGACUA | -0.565 ± 0.17 | -0.247 ± 0.18 |
| GCUCAGCAAUAUUACGACUU | 0.064 ± 0.085 | -0.0421 ± 0.078 |
| GCUCAGCAAUAUUACGAUAA | -0.805 ± 0.092 | -0.579 ± 0.11 |
| GCUCAGCAAUAUUACGAUGA | -2.09 ± 0.2 | -2.26 ± 0.31 |
| GCUCAGCAAUAUUACGCACA | -1.05 ± 0.1 | 0.0263 ± 0.11 |
| GCUCAGCAAUAUUACGCACC | -1.94 ± 0.23 | 0.598 ± 0.24 |
| GCUCAGCAAUAUUACGCCAA | -1.52 ± 0.42 |  |
| GCUCAGCAAUAUUACGCCUU | 0.0207 ± 0.11 | 0.141 ± 0.14 |
| GCUCAGCAAUAUUACGCGAU | -2.55 ± 0.15 | -1.51 ± 0.14 |
| GCUCAGCAAUAUUACGCGGG | -3.41 ± 0.2 | -2.78 ± 0.2 |
| GCUCAGCAAUAUUACGCUCU | -1.09 ± 0.082 | 0.39 ± 0.12 |
| GCUCAGCAAUAUUACGGGAA | -0.173 ± 0.099 | 0.252 ± 0.16 |
| GCUCAGCAAUAUUACGGGAG | -2.46 ± 0.12 | -1.22 ± 0.11 |
| GCUCAGCAAUAUUACGGUAG | -2.79 ± 0.26 | -1.89 ± 0.21 |
| GCUCAGCAAUAUUACGGUGU | -1.3 ± 0.062 | 0.0463 ± 0.076 |
| GCUCAGCAAUAUUACGUAUG | -2.44 ± 0.076 | -1.62 ± 0.091 |
| GCUCAGCAAUAUUACGUAUU | -0.945 ± 0.053 | -0.23 ± 0.068 |
| GCUCAGCAAUAUUACGUCUG | -2.36 ± 0.094 | -1.99 ± 0.11 |
| GCUCAGCAAUAUUACGUGUU | -0.538 ± 0.055 | 0.555 ± 0.064 |
| GCUCAGCAAUAUUACGUUCC | -0.532 ± 0.062 | -0.507 ± 0.088 |
| GCUGAGCAAUAUUACGAAGG |  | -1.52 ± 0.28 |
| GCUGAGCAAUAUUACGACAA | -3.36 ± 0.45 | -1.07 ± 0.39 |
| GCUGAGCAAUAUUACGACCC |  | -0.524 ± 0.39 |

| Sequence | self-splicing fitness (ln) (30 °C) | self-splicing fitness (ln) (37 °C) |
| --- | --- | --- |
| GCUGAGCAAUAUUACGAGCA | -1.54 ± 0.14 | -1.34 ± 0.15 |
| GCUGAGCAAUAUUACGAUCA |  | -1.55 ± 0.35 |
| GCUGAGCAAUAUUACGAUUU | -1.04 ± 0.08 | -0.288 ± 0.096 |
| GCUGAGCAAUAUUACGCCUC | -1.67 ± 0.42 | -1.53 ± 0.49 |
| GCUGAGCAAUAUUACGGAUC | -1.43 ± 0.087 | -0.415 ± 0.12 |
| GCUGAGCAAUAUUACGGUGG | -3.32 ± 0.22 | -3.95 ± 0.37 |
| GCUGAGCAAUAUUACGUCUU | -1.91 ± 0.11 | -1.17 ± 0.15 |
| GCUGAGCAAUAUUACGUGGA | -2.09 ± 0.19 | -2.9 ± 0.31 |
| GCUGAGCAAUAUUACGUGUG | -3.29 ± 0.12 | -1.9 ± 0.1 |
| GCUGAGCAAUAUUACGUUUA | -2.35 ± 0.24 | -1.87 ± 0.25 |
| GCUUAGCAAUAUUACGAAAA | -1.6 ± 0.29 | -1.12 ± 0.28 |
| GCUUAGCAAUAUUACGAAGU | -3.26 ± 0.21 | -2.27 ± 0.21 |
| GCUUAGCAAUAUUACGAAUC | -0.244 ± 0.12 | -0.0191 ± 0.15 |
| GCUUAGCAAUAUUACGAAUU | -1.06 ± 0.076 | -0.24 ± 0.097 |
| GCUUAGCAAUAUUACGACCU | -0.423 ± 0.1 | 0.203 ± 0.14 |
| GCUUAGCAAUAUUACGACUG | -1.67 ± 0.1 | -0.937 ± 0.11 |
| GCUUAGCAAUAUUACGAUAG | -2.11 ± 0.096 | -0.174 ± 0.097 |
| GCUUAGCAAUAUUACGCCCG | -1.04 ± 0.15 | -0.534 ± 0.2 |
| GCUUAGCAAUAUUACGCCCU | -1.54 ± 0.11 | -0.719 ± 0.13 |
| GCUUAGCAAUAUUACGCCGG | -1.97 ± 0.2 | -1.44 ± 0.22 |
| GCUUAGCAAUAUUACGCGUG | -1.74 ± 0.1 | -1.64 ± 0.11 |
| GCUUAGCAAUAUUACGCUCC | -0.928 ± 0.15 | -1.09 ± 0.26 |
| GCUUAGCAAUAUUACGGACC | -1.17 ± 0.17 | 0.79 ± 0.22 |
| GCUUAGCAAUAUUACGGCCU | -1.05 ± 0.18 | -1.57 ± 0.25 |
| GCUUAGCAAUAUUACGGGAG | -2.42 ± 0.18 | -1.29 ± 0.18 |
| GCUUAGCAAUAUUACGGGUA | -1.43 ± 0.15 | -0.513 ± 0.12 |

| Sequence | self-splicing fitness (ln) (30 °C) | self-splicing fitness (ln) (37 °C) |
| --- | --- | --- |
| GCUUAGCAAUAUUACGUAGC | -3.12 ± 0.26 | -1.75 ± 0.26 |
| GCUUAGCAAUAUUACGUAGU | -1.2 ± 0.092 | -0.156 ± 0.11 |
| GCUUAGCAAUAUUACGUCCA | -1.72 ± 0.14 | -0.697 ± 0.14 |
| GCUUAGCAAUAUUACGUUAC | -2.56 ± 0.18 | -1.88 ± 0.19 |
| GCUUAGCAAUAUUACGUUAG | -1.56 ± 0.13 | -1.1 ± 0.15 |
| GCUUAGCAAUAUUACGUUCC | -0.313 ± 0.19 | -0.542 ± 0.23 |
| GCUUAGCAAUAUUACGUUCG | -0.857 ± 0.095 | -0.972 ± 0.11 |
| GCUUAGCAAUAUUACGUUUC | -1.2 ± 0.099 | -0.547 ± 0.11 |
| GGAAAGCAAUAUUACGAAAC | -1.37 ± 0.13 | -0.659 ± 0.17 |
| GGAAAGCAAUAUUACGAAAG | -4.01 ± 0.35 | -3.08 ± 0.35 |
| GGAAAGCAAUAUUACGAACC | -3.32 ± 0.33 | -1.2 ± 0.19 |
| GGAAAGCAAUAUUACGAAGA | -2.45 ± 0.3 | -1.57 ± 0.21 |
| GGAAAGCAAUAUUACGACAU | -0.445 ± 0.013 | -0.0162 ± 0.033 |
| GGAAAGCAAUAUUACGACCU | -0.756 ± 0.15 | -0.363 ± 0.18 |
| GGAAAGCAAUAUUACGAGAA |  | -1.29 ± 0.27 |
| GGAAAGCAAUAUUACGAGGA | -2.88 ± 0.21 | -1.93 ± 0.24 |
| GGAAAGCAAUAUUACGAGUG | -3.38 ± 0.12 | -1.85 ± 0.1 |
| GGAAAGCAAUAUUACGAUGC | -0.209 ± 0.087 | -0.26 ± 0.12 |
| GGAAAGCAAUAUUACGCAAG | -1.26 ± 0.14 | -1.13 ± 0.18 |
| GGAAAGCAAUAUUACGCAGA | -3.75 ± 0.28 | -1.52 ± 0.18 |
| GGAAAGCAAUAUUACGCGUA | -1.45 ± 0.14 | -1.52 ± 0.13 |
| GGAAAGCAAUAUUACGCUGU | -1.07 ± 0.11 | -0.375 ± 0.17 |
| GGAAAGCAAUAUUACGCUUA | -0.976 ± 0.17 | -0.998 ± 0.19 |
| GGAAAGCAAUAUUACGGCCA | -0.368 ± 0.081 | -0.0522 ± 0.1 |
| GGAAAGCAAUAUUACGGUCU | -2.31 ± 0.12 | -1.17 ± 0.15 |
